Laboratory results published in the supplement of paper PMC7125110.
± gives the standard error. Variants at the floor of the assay were thinned out.

B1: glmS ribozyme (parent)
chain: AUAAAAGCGCCAGAACUACAGAAAUGUAGUUGACGAGGAGGAGGUUUAUCGAAUUUUCGGCGGAUGCCUCCAAA

Assays:
Settings in all cases: with glucosamine-6-phosphate
glucosamine-6-phosphate [1] = variants of: B1; assay: self-cleavage kobs at 40 uM GlcN6P; higher = faster cleavage; RNA array
Procedure, shortened: (§1)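 In situ transcription by E. coli RNA polymerase produced barcoded ribozyme variants on sequenced MiSeq chips, and a hybridised Cy3 probe tracked them at 37 °C. Glucosamine-6-phosphate was flowed in at 40 μM to 10 mM in HEPES/KCl/Mg(OAc)2 buffer. kcat and KM were taken from weighted Michaelis–Menten fits of kobs values from exponential decay fits.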

glucosamine-6-phosphate [2] = variants of: B1; assay: self-cleavage kobs at 160 uM GlcN6P; higher = faster cleavage; RNA array
Procedure, shortened: as §1

glucosamine-6-phosphate [3] = variants of: B1; assay: self-cleavage kobs at 640 uM GlcN6P; higher = faster cleavage; RNA array
Procedure, shortened: as §1

glucosamine-6-phosphate [4] = variants of: B1; assay: self-cleavage kobs at 10000 uM GlcN6P; higher = faster cleavage; RNA array
Procedure, shortened: as §1

glucosamine-6-phosphate [5] = variants of: B1; assay: self-cleavage kobs at 2500 uM GlcN6P; higher = faster cleavage; RNA array
Procedure, shortened: as §1

Variant | self-cleavage kobs at 40 uM GlcN6P (glucosamine-6-phosphate [1]) [s⁻¹] | self-cleavage kobs at 160 uM GlcN6P (glucosamine-6-phosphate [2]) [s⁻¹] | self-cleavage kobs at 640 uM GlcN6P (glucosamine-6-phosphate [3]) [s⁻¹] | self-cleavage kobs at 10000 uM GlcN6P (glucosamine-6-phosphate [4]) [s⁻¹] | self-cleavage kobs at 2500 uM GlcN6P (glucosamine-6-phosphate [5]) [s⁻¹]
C16G A36U C50G C68G | 0.000149 ± 4.4e-05 | 0.000256 ± 4.1e-05 | 0.000979 ± 0.00021 | 0.000404 ± 7.1e-05 | –
C16U A33U C50G A64U U69A | 0.000139 ± 2.3e-05 | – | – | 0.000172 ± 3.4e-05 | –
G13A G44C C61A U69G | < 1e-05 | – | – | – | –
A15C C61A | < 1e-05 | – | – | < 1e-05 | –
U30G G66A | 0.000144 ± 3.9e-05 | – | – | – | –
A14C C71U | 0.000147 ± 1.3e-05 | 0.000353 ± 3.7e-05 | 0.000938 ± 9.2e-05 | 0.00794 ± 0.00094 | 0.00483 ± 0.00086
G13U C50G C61G | 8.16e-05 ± 1.3e-05 | – | – | 0.000116 ± 1.9e-05 | –
A14C U45G A52C G63A | < 1e-05 | – | – | – | –
G13U G35A U45A A64G | < 1e-05 | – | < 1e-05 | < 1e-05 | < 1e-05
G13U G60U C68U | < 1e-05 | – | – | – | –
A14U G43U G51U | < 1e-05 | – | – | – | < 1e-05
U30G G41U C68A | < 1e-05 | – | – | < 1e-05 | –
A15U C16G C58U G59U | < 1e-05 | – | < 1e-05 | – | < 1e-05
A14C A53U U69C | 5.39e-05 ± 1.6e-05 | – | – | – | –
C16G G35C | < 1e-05 | – | < 1e-05 | < 1e-05 | < 1e-05
C16A G37U G38A U45A U55G | < 1e-05 | – | – | < 1e-05 | –
G13U A42C A53C C68A | < 1e-05 | – | – | – | –
U30A U49C | < 1e-05 | < 1e-05 | < 1e-05 | < 1e-05 | < 1e-05
C16A G62U | < 1e-05 | < 1e-05 | < 1e-05 | – | –
C16G G43C | < 1e-05 | – | < 1e-05 | < 1e-05 | –
A14U G41C C70G | 0.000998 ± 0.00029 | 0.00172 ± 0.00056 | 0.00931 ± 0.0023 | 0.0658 ± 0.026 | 0.0459 ± 0.018
A14C C68U C71U | < 1e-05 | – | – | – | –
G13U C50A | < 1e-05 | – | – | – | –
U30A A52C | < 1e-05 | < 1e-05 | < 1e-05 | < 1e-05 | < 1e-05
C16G C34A | < 1e-05 | – | < 1e-05 | < 1e-05 | –
